B1: DVD2-Ig: DVD-Ig as DVD1-Ig but with linkers ADAAP (light chain) and AKTTPP (heavy chain) (antibody)
VH: MQLSGLTSEDSAMYFCVRFPTGNDYYAMDYWGQGTSVTVSSAKTTPPQIQLVQSGPELKKPGETVKISCKASGYTFRNYGMNWVKQAPGKDLKRMAWINTYTGESTYADDFKGRFAFSLETSASTAYLQINNLKNEDTATYFCARGIYYYGSSYAMDYWGQGTSVTVSS
VL: PVEADDAATYYCQQNNEDPFTFGSGTKLEIKRADAAPNIQMTQTTSSLSASLGDRVTISCRASQDISNCLNWYQQKPDGTVKLLIYYTSRLHSGVPSRFSGSGSGTDYSLTISNLEQEDIATYFCQQGKTLPYAFGGGTKLEINR
B2: DVD1-Ig: DVD-Ig binding hIL-1α and hIL-1β; VH/VL of 13F5.G5 fused directly to N-terminus of 3D12.E3 VH/VL, no linker (antibody)
VH: MQLSGLTSEDSAMYFCVRFPTGNDYYAMDYWGQGTSVTVSSQIQLVQSGPELKKPGETVKISCKASGYTFRNYGMNWVKQAPGKDLKRMAWINTYTGESTYADDFKGRFAFSLETSASTAYLQINNLKNEDTATYFCARGIYYYGSSYAMDYWGQGTSVTVSS
VL: PVEADDAATYYCQQNNEDPFTFGSGTKLEIKRNIQMTQTTSSLSASLGDRVTISCRASQDISNCLNWYQQKPDGTVKLLIYYTSRLHSGVPSRFSGSGSGTDYSLTISNLEQEDIATYFCQQGKTLPYAFGGGTKLEINRR

How the values were obtained:
hIL-1β = hIL-1β (Homo sapiens, UniProt P01584); assay: MRC-5 bioassay: neutralization of hIL-1β-induced IL-8 production; assay type: cell-based
Description: (§1) The MRC-5 cell line is a human lung fibroblast cell line that produces IL-8 in response to human IL-1α and IL-1β in a dose-dependent manner (see, Dinarello, Muegge, and Durum (2000) Curr. Protocols Immunol. 6:1). MRC-5 cells were cultured in 10% FBS complete MEM and grown at 37° C. in a 5% CO2 incubator. […] The supernatants were harvested, diluted, and IL-8 concentrations measured by ELISA using a standard IL-8 ELISA kit (R&D Systems). Antibody potency was determined by its ability to inhibit IL-8 production by MRC-5 cells.
The biological activity of DVD-Ig was measured using MRC-5 bioassay. The MRC-5 cell line is a human lung fibroblast cell line that produces IL-8 in response to human IL-1α and IL-1β in a dose-dependent manner. MRC-5 cells were obtained from ATCC and cultured in 10% FBS complete MEM at 37° C. in a 5% CO2 incubator. To determine neutralizing activity of the DVD-Ig against human IL-1α or IL-1β, 50 μl of antibody (1×10^−7 to 1×10^−12 M) in MEM/10% FBS was added to a 96 well plate and pre-incubated with 50 μl of hIL-1α or hIL-1β (200 pg/ml) for 1 hour at 37° C., 5% CO2. […] The supernatants were harvested and human IL-8 production measured by standard ELISA (R&D Systems, Minneapolis, Minn.). Neutralizing activity of the DVD-Ig binding protein was determined by its ability to inhibit IL-8 production.

hIL-1α = molecular target: T1, hIL-1α (Homo sapiens, UniProt P01583); assay: MRC-5 bioassay: neutralization of hIL-1α-induced IL-8 production; assay type: cell-based; settings: for IC50: antigen hIL-1α, read-out: Potency IC50
T1 sequence (P01583 113-271): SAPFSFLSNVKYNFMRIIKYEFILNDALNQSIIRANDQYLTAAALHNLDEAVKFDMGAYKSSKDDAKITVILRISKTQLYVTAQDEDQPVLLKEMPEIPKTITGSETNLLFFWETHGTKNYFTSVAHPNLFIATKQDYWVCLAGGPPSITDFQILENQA
Description: as §1
The biological activity of DVD-Ig was measured using MRC-5 bioassay. The MRC-5 cell line is a human lung fibroblast cell line that produces IL-8 in response to human IL-1α and IL-1β in a dose-dependent manner. MRC-5 cells were obtained from ATCC and cultured in 10% FBS complete MEM at 37° C. in a 5% CO2 incubator. To determine neutralizing activity of the DVD-Ig against human IL-1α or IL-1β, 50 μl of antibody (1×10^−7 to 1×10^−12 M) in MEM/10% FBS was added to a 96 well plate and pre-incubated with 50 μl of hIL-1α or hIL-1β (200 pg/ml) for 1 hour at 37° C., 5% CO2. MRC-5 cells at a concentration of 1×10^5/ml were then added (100 μl) to all wells, and the plates were incubated overnight at 37° C. in a 5% CO2 incubator. The supernatants were harvested and human IL-8 production measured by standard ELISA (R&D Systems, Minneapolis, Minn.). Neutralizing activity of the DVD-Ig binding protein was determined by its ability to inhibit IL-8 production.

[1] = Size exclusion chromatography (SEC): physical homogeneity and in vitro stability; assay type: physicochemical; settings: for Ab (intact antibody) / Agg (aggregates) / Frgm (fragments): 0.2-0.4 mg/ml in PBS; for Ab (intact antibody) / Agg (aggregates) / Frgm (fragments) / aggregation and fragmentation in stability analysis: SEC; for aggregation and fragmentation in stability analysis: PBS, freeze-thaw, 4, 25, 40° C. for 4 and 8 weeks; for SEC profile of purified protein (physical homogeneity): purified protein in PBS
Description: For measuring molecular weight (MW) of light and heavy chains of DVD-Ig binding protein, 10 μL of DVD-Ig molecule (0.8 μg/μL) was reduced by 1.0 M DTT solution (5 μL). A PLRP-S, 8μ, 4000 A, and 1×150 mm protein column (Michrom BioResource, Auburn, Mass.) was used to separate heavy and light chains of DVD-Ig molecule. Agilent HP1100 Capillary HPLC (Agilent Technologies Inc., Pala Alto, Calif.) was used with the mass spectrometer QSTAR (Applied Biosystems, Foster City, Calif.). The valco valve was set at 10 minutes to switch the flow from waste to MS for desalting sample. Buffer A was 0.02% TFA, 0.08% FA, 0.1% ACN and 99.8% HPLC-H2O. Buffer B contained 0.02% TFA, 0.08% FA, 0.1% HPLC-H2O, and 99.8% ACN. The HPLC flow rate was 50 μL/minute and the sample injection volume was […]. The temperature of the column oven was set at 60° C., and separation gradient was: 5% B for 5 minutes; 5% B to 65% B for 35 minutes; 65% B to 95% B for another 5 minutes, and 95% B to 5% B for 5 minutes. TOFMS scan was from 800 to 2500 amu, and cycles were 3600. To determine the MW of full length DVD-Ig binding protein, a Protein MicroTrap cartridge (Michrom BioResource, Auburn, Mass.) was used for desalting the sample. The HPLC gradient was: 5% B for 5 minutes; 5% B to 95% B in 1 minute; and from 95% B to 5% B in another 4 minutes. The QSTAR TOFMS scan was from 2000 to 3500 amu, and cycles were 899. All MS raw data were analyzed using the Analyst QS software (Applied Biosystems). For SEC analysis of the DVD-Ig binding protein, purified DVD-Ig binding protein and chimeric Abs, in PBS, were applied on a Superose 6 10/300 G2, 300×10 mm column (Amersham Bioscience, Piscataway, N.J.). An HPLC instrument, Model 10A (Shimadzu, Columbia, Md.) was used for SEC. All proteins were determined using UV detection at 280 nm and 214 nm. The elution was isocratic at a flow rate of 0.5 mL/minute. For stability study, samples in the concentration range of 0.2-0.4 mg/ml in PBS underwent 3 freeze-thaw cycles between −80° C. and 25° C., or were incubated at 4° C., 25° C., or 40° C., for 4 weeks and 8 weeks, followed by SEC analysis.
In order to determine the precise molecular weight of the DVD-Ig binding proteins, mass spectrometry was employed. […] To further study the physical properties of DVD-Ig binding protein in solution, size exclusion chromatography (SEC) was used to analyze each protein.
The physical stability of DVD-Ig was tested as follows. Purified antibodies in the concentration range of 0.2-0.4 mg/ml in PBS underwent 3 freeze-thaw cycles between −80° C. and 25° C., or were incubated at 4° C., 25° C., or 40° C., for 4 weeks and 8 weeks, followed by analysis using size exclusion chromatography (SEC) analysis (see Table 12).

[2] = 3xFreeze-Thaw between −80° C. and 25° C.

hIL-1β, sequence (P01584 117-269): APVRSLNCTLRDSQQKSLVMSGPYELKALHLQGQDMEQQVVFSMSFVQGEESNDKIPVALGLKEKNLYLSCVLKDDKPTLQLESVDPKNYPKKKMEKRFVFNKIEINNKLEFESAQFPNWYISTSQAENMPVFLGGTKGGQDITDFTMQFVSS

| Molecule | neutralizing activity against hIL-1α, fold less than that of the chimeric antibodies (hIL-1α) [fold] | IC50 (hIL-1α) [nM] | Ab (intact antibody) [1, 2] [percentage] | Agg (aggregates) [1, 2] [percentage] | Frgm (fragments) [1, 2] [percentage] | Ab (intact antibody) ([1]; 4° C. @ 4 Wks) [percentage] | Agg (aggregates) ([1]; 4° C. @ 4 Wks) [percentage] | Frgm (fragments) ([1]; 4° C. @ 4 Wks) [percentage] | Ab (intact antibody) ([1]; 4° C. @ 8 Wks) [percentage] | Agg (aggregates) ([1]; 4° C. @ 8 Wks) [percentage] | Frgm (fragments) ([1]; 4° C. @ 8 Wks) [percentage] | Ab (intact antibody) ([1]; 25° C. @ 4 Wks) [percentage] | Agg (aggregates) ([1]; 25° C. @ 4 Wks) [percentage] | Frgm (fragments) ([1]; 25° C. @ 4 Wks) [percentage] | Ab (intact antibody) ([1]; 25° C. @ 8 Wks) [percentage] | Agg (aggregates) ([1]; 25° C. @ 8 Wks) [percentage] | Frgm (fragments) ([1]; 25° C. @ 8 Wks) [percentage] | Ab (intact antibody) ([1]; 40° C. @ 4 Wks) [percentage] | Agg (aggregates) ([1]; 40° C. @ 4 Wks) [percentage] | Frgm (fragments) ([1]; 40° C. @ 4 Wks) [percentage] | further results |
| --- | --- | --- | --- | --- | --- | --- | --- | --- | --- | --- | --- | --- | --- | --- | --- | --- | --- | --- | --- | --- | --- |
| B1 | 3 | 2.9 | 100.0 | 0.0 | 0.0 | 100.0 | 0.0 | 0.0 | 100.0 | 0.0 | 0.0 | 100.0 | 0.0 | 0.0 | 100.0 | 0.0 | 0.0 | 100.0 | 0.0 | 0.0 | neutralizing activity to hIL-1β, fold higher than that of DVD1-Ig (hIL-1β): 3 fold; Ab (intact antibody) ([1]; 40° C. @ 8 Wks): 100.0 percentage; Agg (aggregates) ([1]; 40° C. @ 8 Wks): 0.0 percentage; Frgm (fragments) ([1]; 40° C. @ 8 Wks): 0.0 percentage; aggregation and fragmentation in stability analysis [1]: Neither aggregation nor fragmentation was detected; maintained as intact monomeric molecule ([1]; all conditions tested (freeze-thaw; 4, 25, 40° C. for 4 and 8 weeks)): 100%; SEC profile of purified protein (physical homogeneity) [1]: a single peak |
| B2 | 3 | 2.3 | 53.50 | 46.50 | 0.00 | 56.63 | 42.43 | 0.94 | 56.91 | 38.18 | 4.91 | 54.34 | 45.66 | 0.00 | 67.39 | 24.42 | 8.19 | 59.42 | 36.70 | 3.88 | IC50 (hIL-1β; antigen hIL-1β, read-out: Potency IC50): 3.1 nM; Ab (intact antibody) ([1]; 40° C. @ 8 Wks): 67.16 percentage; Agg (aggregates) ([1]; 40° C. @ 8 Wks): 20.55 percentage; Frgm (fragments) ([1]; 40° C. @ 8 Wks): 12.29 percentage; aggregation and fragmentation in stability analysis [1]: showed aggregations in PBS under different conditions; SEC profile of purified protein (physical homogeneity) [1]: a major peak as well as a shoulder peak on the right |

Source: patent US8889130B2, “Treatment of osteoarthritis and pain” (Abbvie Inc., priority 2011, dated 2014)
